Results on two molecules are retold here after patent US8080531B2, “Methods for modulating checkpoint activation through TopBP1” (California Institute of Technology, priority 2006, dated 2011).

The subject of data set [1] is Xatr-Xatrip. As to the kind of experiment: Kinase assay of Xatr-Xatrip complexes isolated from Xenopus egg extracts. Particulars: for activation of Xatr kinase activity toward PHAS-I: isolated Xatr-Xatrip complexes, 32P-ATP, result in words. Type of data set: biochemical. The source says: Specifically, Applicants first isolated Xatr from egg extracts by pull-downs with FLAG-tagged Xenopus ATRIP (Xatrip). For these experiments, Applicants used both full-length Xatrip and an N-terminal truncation mutant (ΔN222) that supports normal Xatr-dependent activation of Xchk1 in egg extracts (Kumagai et al., 2004; Kim et al., 2005).
Applicants eluted the beads with FLAG peptide and mixed the eluates with a His6-tagged version of XtopBP1 that had been purified from baculovirus-infected insect cells (FIG. 1B). Finally, Applicants added ^32P-ATP and PHAS-I, a commonly used model substrate for ATR (Abraham, 2001).
Xatrip-FLAG and XatripΔN222-FLAG (20 ng/μl each) were incubated in interphase extracts containing anti-FLAG M2 antibody beads (Sigma) for 60 min at room temperature. The beads were isolated and washed twice with buffer A (10 mM HEPES-KOH (pH 7.5), 150 mM NaCl, 0.1% CHAPS, and 2.5 mM EGTA) and twice with HEPES-buffered saline (HBS; 10 mM HEPES-KOH (pH 7.5) and 150 mM NaCl). Xatr-Xatrip complexes were eluted in one-tenth the volume of the egg extract in HBS containing 0.1 mg/ml 3×-FLAG peptide (Sigma) for 60 min at 4° C. Eluates (2 μl) were used for kinase assays as described below.
(§1) Samples were incubated in 20 μl kinase buffer (50 mM Tris-HCl (pH 7.5), 10 mM MgCl2, 1 mM dithiothreitol, 100 μM nonradioactive ATP, and 100 μCi/ml [γ-^32P]ATP) containing 12.5 μg/ml PHAS-I or 50 μg/ml GST-Xmcm2 (62-122) for 30 min at room temperature. GST-XtopBP1 (972-1279) was added at a final concentration of 100 μg/ml unless indicated otherwise. In some cases, GST-Xmcm2 (62-122), GST-Xchk1 (306-352), or full-length Xchk1-Myc-His6 were used as substrates with only […] nonradioactive ATP. Reactions were terminated by boiling in gel sample buffer.

Data set [2] has as its system Xchk1. As to the kind of experiment: Checkpoint-dependent phosphorylation of Xchk1 in XtopBP1-depleted egg extracts with aphidicolin and sperm nuclei. Particulars: added back to XtopBP1-depleted extract, aphidicolin. Type of data set: biochemical, Xenopus. The source says:
Applicants proceeded to remove endogenous XtopBP1 from egg extracts by immunodepletion with anti-XtopBP1 antibodies (FIG. 7C). In parallel, Applicants used control antibodies to prepare mock-depleted extract. Next, Applicants added back wild-type His6-XtopBP1 or the His6-XtopBP1-W1138R mutant to aliquots of the XtopBP1-depleted extract. Finally, Applicants added aphidicolin and demembranated Xenopus sperm nuclei to the various extracts in order to create stalled replication forks and then examined phosphorylation of Xchk1 (FIG. 7D).
(§2) Extracts from Xenopus eggs were prepared as described (Kumagai and Dunphy, 2000). A DNA replication checkpoint response was induced by addition of 50 μg/ml aphidicolin into extracts containing demembranated sperm nuclei (3000 per μl) (Kumagai and Dunphy, 2000). To monitor DNA replication, extracts containing 1000 sperm nuclei/μl were incubated with [α-^32P]dATP (Yoo et al., 2004).
Xatr and Xatrip were immunodepleted as described (Kumagai et al., 2004). For immunodepletion of XtopBP1, we incubated 100 μl egg extract twice for 60 min with 10 μl Affiprep protein A beads (BioRad) containing 35 μg anti-XtopBP1 antibodies.

For data set [3], the system named is chromosomal DNA replication. Nature of the data set: Chromosomal DNA replication in XtopBP1-depleted egg extracts. Particulars: XtopBP1-depleted extracts with protein added back. Type of data set: biochemical, Xenopus. The protocol:
In conjunction with these experiments, Applicants also examined chromosomal DNA replication in extracts containing either wild-type or W1138R His6-XtopBP1. […] Therefore, the defect in phosphorylation of Xchk1 in the extracts containing this mutant is not due to a failure in the assembly of DNA replication forks.
as §2

Another data set deals with Xatm. Nature of the data set: Kinase assay of immunoprecipitated Xatm toward PHAS-I. The class given is biochemical, Xenopus. Particulars: Xatm immunoprecipitated from egg extracts. Here is the method: Applicants have also shown that TopBP1 is a specific activator of ATR and not a general activator of the PIKK family. Specifically, Applicants immunoprecipitated both Xatr and Xatm in parallel from Xenopus egg extracts and then incubated the immunoprecipitates with GST-XtopBP1 (972-1279) (FIG. 3F).
as §1

The subject of data set [4] is Xatr-Xatrip. Nature of the data set: Glutathione bead pull-down of Xatr and Xatrip from egg extracts. The class given is binding, Xenopus. The protocol:
(§3) Specifically, Applicants incubated glutathione beads containing GST-XtopBP1 (972-1279) in egg extracts, reisolated the beads, and performed immunoblotting for both Xatr and Xatrip. […] In addition, in other experiments, there was no binding of Xatr or Xatrip to beads containing GST fusions of the 1-348, 333-646, or 623-984 segments from XtopBP1 (data not shown).
(§4) Applicants also tested to see if the association of XtopBP1 with Xatr depends upon Xatrip. For this experiment, Applicants removed endogenous Xatrip from egg extracts by immunodepletion with anti-Xatrip antibodies. As described previously, this procedure leaves behind approximately 30% of the endogenous Xatr, the fraction that is not in a complex with Xatrip (Kumagai et al., 2004). Next, Applicants added GST-XtopBP1 (972-1279) to the Xatrip-depleted extracts and to mock-depleted extracts that had been prepared in parallel.

Data set [5] deals with T1, human ATR (Homo sapiens, UniProt Q13535).
T1 construct: expressed in transfected cells; host or cells: U2OS GW33 cells (doxycycline-inducible), nuclear extract, anti-FLAG purification
Nature of the data set: Kinase assay of recombinant human FLAG-ATR against S92 of GST-Xmcm2 (62-122). The class given is biochemical. Particulars: wild-type human FLAG-ATR from U2OS nuclear extracts. Here is the method: (§5) Specifically, Applicants isolated wild-type and kinase-deficient versions of FLAG-tagged human ATR from nuclear extracts of U2OS cells that conditionally express these proteins (FIG. 5C). The recombinant ATR proteins were purified with anti-FLAG magnetic beads under conditions that preserve the binding of endogenous ATRIP (Ünsal-Kacmaz and Sancar, 2004). Next, Applicants incubated both the wild-type and kinase-deficient FLAG-ATR preparations in the absence or presence of GST-XtopBP1 (972-1279), and measured kinase activity against S92 of the GST-Xmcm2 (62-122) peptide.
as §1
(§6) U2OS cells conditionally expressing wild-type (GW33) or kinase-deficient (GK41) human FLAG-ATR were cultured as described (Nghiem et al., 2001). Cells were induced with 1 μg/ml doxycycline for 48 hr. Nuclear extracts were prepared as described (Dignam et al., 1983) except that nuclei were lysed by brief sonication and the concentration of NaCl in the nuclear isolation buffer was reduced to 350 mM in order to preserve the binding of endogenous ATRIP to recombinant ATR. FLAG-ATR proteins were isolated by an overnight incubation with anti-FLAG antibodies bound to protein G-magnetic beads (Dynal) and eluted with 3×-FLAG peptide.

Data set [6] deals with human ATR. Described as above. Type of data set: biochemical. The protocol:
as §5, §1, §6

Data set [7] has as its system Xchk1. As to the kind of experiment: Ectopic phosphorylation of 35S-Xchk1 in Xenopus egg extracts without checkpoint-inducing DNA. Conditions: 35S-Xchk1, tautomycin, no checkpoint-inducing DNA template. The class given is biochemical. Here is the method: Because the GST-XtopBP1 (972-1279) fragment could activate Xatr in vitro without the inclusion of DNA, Applicants reasoned that ectopic addition of this fragment to Xenopus egg extracts might also be able to trigger the Xatr-dependent phosphorylation of Xchk1 even in the absence of a checkpoint-inducing DNA template.
as §2

Data set [8] addresses Xatr-Xatrip (Xenopus laevis, UniProt Q9DE14). As to the kind of experiment: Glutathione bead pull-down of Xatr and Xatrip from egg extracts. The class given is binding. More on the design: incubated glutathione beads containing GST-XtopBP1 (972-1279) in egg extracts, reisolated the beads, and performed immunoblotting for both Xatr and Xatrip; Applicants removed endogenous Xatrip from egg extracts by immunodepletion with anti-Xatrip antibodies; from tissue; host or cells: Xenopus egg extract. Particulars: Xatrip-depleted extracts. The protocol:
as §3, §4

Xatr-Xatrip, sequence (Q9DE14 whole entry, the tested form may be a part): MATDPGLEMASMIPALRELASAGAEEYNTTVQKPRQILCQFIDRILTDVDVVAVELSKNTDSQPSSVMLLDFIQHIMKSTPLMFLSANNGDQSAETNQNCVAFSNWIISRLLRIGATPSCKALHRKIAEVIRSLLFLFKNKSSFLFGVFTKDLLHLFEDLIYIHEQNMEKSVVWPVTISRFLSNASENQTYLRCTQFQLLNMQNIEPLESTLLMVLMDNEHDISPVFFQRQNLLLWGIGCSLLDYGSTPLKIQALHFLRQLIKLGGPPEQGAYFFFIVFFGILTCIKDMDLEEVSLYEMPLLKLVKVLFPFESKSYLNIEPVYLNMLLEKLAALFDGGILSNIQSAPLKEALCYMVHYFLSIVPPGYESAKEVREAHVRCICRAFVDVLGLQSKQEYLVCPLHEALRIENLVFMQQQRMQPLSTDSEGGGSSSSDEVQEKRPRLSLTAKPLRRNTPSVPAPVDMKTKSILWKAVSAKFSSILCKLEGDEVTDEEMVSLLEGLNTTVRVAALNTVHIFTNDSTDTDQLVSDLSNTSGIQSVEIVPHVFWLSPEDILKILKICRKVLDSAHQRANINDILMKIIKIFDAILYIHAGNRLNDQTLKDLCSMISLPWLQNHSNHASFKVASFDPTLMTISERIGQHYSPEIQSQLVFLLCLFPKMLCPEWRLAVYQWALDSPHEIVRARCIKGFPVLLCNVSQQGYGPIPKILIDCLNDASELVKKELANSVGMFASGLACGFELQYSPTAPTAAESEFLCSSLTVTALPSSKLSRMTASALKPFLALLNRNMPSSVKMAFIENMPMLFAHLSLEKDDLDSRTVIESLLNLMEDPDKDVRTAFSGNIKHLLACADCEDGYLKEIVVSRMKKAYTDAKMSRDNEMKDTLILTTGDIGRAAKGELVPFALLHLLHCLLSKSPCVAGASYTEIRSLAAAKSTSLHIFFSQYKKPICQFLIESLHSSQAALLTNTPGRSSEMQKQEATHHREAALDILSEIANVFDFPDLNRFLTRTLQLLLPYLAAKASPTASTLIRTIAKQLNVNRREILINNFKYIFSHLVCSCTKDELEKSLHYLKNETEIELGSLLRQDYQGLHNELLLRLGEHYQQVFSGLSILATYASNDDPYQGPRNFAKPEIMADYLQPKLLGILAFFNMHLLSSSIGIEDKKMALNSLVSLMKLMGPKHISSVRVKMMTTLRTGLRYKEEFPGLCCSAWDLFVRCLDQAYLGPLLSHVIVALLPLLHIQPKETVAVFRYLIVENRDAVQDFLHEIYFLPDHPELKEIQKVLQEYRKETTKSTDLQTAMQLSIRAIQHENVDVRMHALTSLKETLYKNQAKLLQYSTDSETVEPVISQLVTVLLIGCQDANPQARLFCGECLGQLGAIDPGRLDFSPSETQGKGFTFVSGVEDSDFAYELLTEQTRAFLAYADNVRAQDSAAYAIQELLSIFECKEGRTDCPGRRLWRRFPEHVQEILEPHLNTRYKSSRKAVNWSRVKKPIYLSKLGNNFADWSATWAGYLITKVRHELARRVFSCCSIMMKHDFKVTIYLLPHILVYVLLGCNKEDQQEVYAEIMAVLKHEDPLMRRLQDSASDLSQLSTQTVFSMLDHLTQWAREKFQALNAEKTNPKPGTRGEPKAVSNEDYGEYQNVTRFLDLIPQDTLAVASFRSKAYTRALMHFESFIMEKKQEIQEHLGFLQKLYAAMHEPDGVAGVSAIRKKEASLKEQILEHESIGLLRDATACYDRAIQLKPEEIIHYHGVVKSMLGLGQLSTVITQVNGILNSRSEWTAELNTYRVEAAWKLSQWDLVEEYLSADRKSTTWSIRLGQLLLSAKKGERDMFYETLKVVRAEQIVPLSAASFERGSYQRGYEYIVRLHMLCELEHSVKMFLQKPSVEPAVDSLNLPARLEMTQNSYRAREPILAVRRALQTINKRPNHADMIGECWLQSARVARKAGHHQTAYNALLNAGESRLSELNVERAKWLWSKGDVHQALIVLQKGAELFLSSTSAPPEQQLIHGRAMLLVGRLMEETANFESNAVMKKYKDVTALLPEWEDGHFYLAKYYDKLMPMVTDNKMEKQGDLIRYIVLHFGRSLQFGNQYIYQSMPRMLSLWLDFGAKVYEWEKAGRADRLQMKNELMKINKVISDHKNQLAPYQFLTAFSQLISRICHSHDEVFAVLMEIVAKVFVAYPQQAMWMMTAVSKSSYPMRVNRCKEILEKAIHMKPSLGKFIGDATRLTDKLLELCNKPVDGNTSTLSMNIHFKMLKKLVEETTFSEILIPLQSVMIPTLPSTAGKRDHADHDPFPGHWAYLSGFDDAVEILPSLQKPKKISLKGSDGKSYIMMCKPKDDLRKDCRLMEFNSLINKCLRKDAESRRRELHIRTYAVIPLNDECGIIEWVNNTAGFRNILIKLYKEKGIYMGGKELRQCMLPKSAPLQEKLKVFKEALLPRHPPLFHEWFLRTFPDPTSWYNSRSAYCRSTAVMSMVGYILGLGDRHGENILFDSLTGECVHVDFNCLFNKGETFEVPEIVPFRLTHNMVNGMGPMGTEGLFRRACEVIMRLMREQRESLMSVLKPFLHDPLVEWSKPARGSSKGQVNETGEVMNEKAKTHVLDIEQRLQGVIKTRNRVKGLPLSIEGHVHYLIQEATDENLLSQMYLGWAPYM
Xatr-Xatrip (Xenopus laevis, UniProt Q9DE14), sequence (Q9DE14 whole entry): as the sequence (Q9DE14 whole entry, the tested form may be a part) above

Turning to “His6-XtopBP1-W1138R: version of full-length His6-XtopBP1 with the W1138R mutation”, the “activation of Xatr kinase activity toward PHAS-I” value in the data set on Xatr-Xatrip [1] was “unable to activate Xatr”. Also, in the data set on Xchk1 [2], the “rescue of phosphorylation of Xchk1” value was “could not restore the phosphorylation of Xchk1”. Further, in data set [3], the “chromosomal DNA replication” value is on record as “not inhibited”.

B1: GST-XtopBP1 (972-1279): GST fusion protein containing conserved region between BRCT domains VI and VII (residues 972-1279) of XtopBP1 (protein)
chain: EQQKRVPEALYPHTYNPKMSLDISAVQDGSYTASKFSADTSLQQDENSELQLQQNNKFGETSDDQVKKAAGDGNPQNPSKDVKGALTQTLEMRENFQRQLQEFMSATSVVKPRGSVGRAGFDNSPCTPEGARSTRNGRSRVLEALRQSRQAMTDLNTEPSQNEQIIWDDPTAREERAKLVSNLQWPDSPSQYSEQLQHNMNDAGGNYTPAKESLTDSEIAELEACEFEPKSAMRTPVIENNLQSPTKPDHLTPTPQAPSIAFPLANPPVAPQPREKPVQPFSKEETLKERRFQLSSLDPQERIDYSQL
modifications: left off: a dimerising Fc or GST
notes: GST fusion protein containing conserved region between BRCT domains VI and VII (residues 972-1279) of XtopBP1
Regarding B1, the “activation of immunoprecipitated Xatr” value with Xatr-Xatrip [1] (Xatr immunoprecipitated from egg extracts, PHAS-I) is on record as “strong activation”. For the same molecule, the “activation of Xatr kinase activity toward PHAS-I” value in the data set on Xatr-Xatrip [1] was “induced activation of Xatr as effectively as full-length XtopBP1”. Moreover, the “Xatr-dependent phosphorylation of GST-Xmcm2 (62-122) peptide” value with Xatr-Xatrip [1] (substrate GST-Xmcm2 (62-122), S92) is “induced a strong Xatr-dependent phosphorylation”. Also, the “phosphorylation of GST-Xchk1 (306-352) peptide and full-length Xchk1-Myc-His6 on S344” value in the data set with Xatr-Xatrip [1] (substrates GST-Xchk1 (306-352) and Xchk1-Myc-His6) was “readily induced phosphorylation”. For the same molecule, in the data set on Xatm, the “activation of Xatm” value is recorded as “no activation of Xatm”. The figures for the “binding of Xatr to the XtopBP1 fragment” value in the data set on Xatr-Xatrip [4] (Xatrip-depleted extracts plus recombinant XatripΔN222-FLAG), in the data set with Xatr-Xatrip [4] (mock-depleted extracts) and with Xatr-Xatrip [8] were “restore the binding”, “good binding” and “no binding”, respectively. The “binding of Xatr and Xatrip to glutathione beads” value in the data set on Xatr-Xatrip [4] (egg extracts, immunoblotting) was “could clearly detect binding”. In addition, in the data set with human ATR [5], the “kinase activity of wild-type FLAG-ATR” value is given as “large increase”. Further, the “kinase activity in mock preparation of magnetic beads” value in the data set with human ATR [6] (beads lacking anti-FLAG antibodies) is “did not induce any kinase activity”. In addition, in the data set on human ATR [6] (kinase-deficient human FLAG-ATR), the “activity of kinase-deficient FLAG-ATR” value was “neither the intact nor W1138R mutant form of GST-XtopBP1 (972-1279) had any effect”. Also, the “phosphorylation of Xchk1 in egg extracts” value with Xchk1 [7] is “very robust phosphorylation”.
